Data: publication PMC8216288
pKd: −log10 of the molar value.

Tests used:
[1] = biological target: GST-pICln S193, 195, 197D (phospho-mimicking aspartate mutant) (human) (UniProt P54105); assay: SPR; Biacore T200; GST-pICln immobilised by amine coupling on CM5 chip (400 RU), SmG as analyte; multi-cycle, 20°C, 10 μl/min; 300 mM NaCl, 50 mM Tris/HCl pH 7.5, 1 mM EDTA, 1 mM EGTA; steady-state fit; n = 3
[2] = tested on: Sm core (heptameric ring SmB/D1/D2/D3/E/F/G) assembled from GFP-pICln immunoprecipitate, detected by Y12 supershift; assay: EMSA with Y12 supershift; conditions: S100 assembly: 50 ug extract, 2 ug tRNA, 5 mM ATP, 1 ul RNAsin in 20 ul PBS, 35 C, 45 min, native RNA gel, pH not stated, GFP-pICln IP with or without ATP and …

Chain of GST-pICln S193, 195, 197D (phospho-mimicking aspartate mutant) (human) (P54105 other isoform, or with tags, fused parts or gaps mutant): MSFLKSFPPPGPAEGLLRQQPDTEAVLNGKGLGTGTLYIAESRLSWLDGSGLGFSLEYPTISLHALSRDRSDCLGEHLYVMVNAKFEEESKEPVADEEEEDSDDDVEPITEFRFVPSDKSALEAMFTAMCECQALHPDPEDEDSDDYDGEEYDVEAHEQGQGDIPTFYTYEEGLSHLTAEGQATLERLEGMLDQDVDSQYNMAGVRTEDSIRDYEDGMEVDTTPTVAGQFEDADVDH

pKd [1] | Substance | binding signal (fold vs IP alone) ([2]; +ATP + ULK2, stated as no effect) | binding signal (fold vs IP alone) ([2]; +ATP + active ULK1) | binding signal (fold vs IP alone) ([2]; +ATP) | binding signal (fold (reference)) [2]
4.07 | SmG purified from E. coli (SPR analyte) (from UniProt P62308 1-76) (natural protein) |  |  |  | 
 | U1 snRNA | 1.3 | 2.6 | 1.4 | 1
